The supplement of paper PMC10126150
± gives the standard deviation of the averaged measurements.

Test system: ATP
Experiment: switch fluorescence ratio, 500 uM ATP over buffer (Cy3 cluster intensity, sum of 5 cycles each) (fold (ratio)); higher = stronger signal-on switching upon ATP binding; sequences stand for … in TCGTCGGCAGCGTCAGATGTGTATAAGAGACAGTTTTTTTTTTTTTTTTTTTTTTTTT…TC
Settings: aptamer strand: ATP DNA aptamer (quencher-CACCTGGGGGAGTATTGCGGAGGAAGG + anchor), 100 nM annealed; ATP concentration: 500 uM
Procedure, shortened: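 Cy3-labelled switching-strand clusters on a modified Illumina MiSeq flow-cell were annealed to 100 nM quencher-labelled ATP aptamer and imaged first in selection buffer, then after 15 min with 500 uM ATP at 22 °C. NaOH stripping and re-annealing separated each of five buffer/ATP cycles, and clusters outside 100-1000 RFU were excluded. The fluorescence ratio sums target-cycle Cy3 intensity over buffer-cycle Cy3 intensity per cluster and averages it per switch-domain sequence.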
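Note: ATP exposure 15 min at 22 °C before imaging.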

| Sequence | switch fluorescence ratio |
| --- | --- |
| GGGGGGAGGA | 1.01 ± 0.056 |
| GTTAAGGTTT | 1.03 ± 0.063 |
| CGATGTGAGA | 1.04 ± 0.022 |
| AGTTTGTTGT | 1.06 ± 0.095 |
| GAGTGGGTTT | 0.999 ± 0.03 |
| AAGGTGGTTG | 0.969 ± 0.016 |
| TGGAGTAGGA | 1.04 ± 0.051 |
| GGGTCTAGGA | 1.006 ± 0.0052 |
| GGGAAAAAGA | 1.03 ± 0.012 |
| TTTATGTCGT | 0.986 ± 0.038 |
| AAGTGTTCAG | 0.982 ± 0.027 |
| TAAGGGGCGG | 0.989 ± 0.04 |
| CTGGTCCAGG | 1.12 ± 0.034 |
| CTCGCTCGGT | 1.01 ± 0.019 |
| GCGTGACGTA | 1 ± 0.088 |
| TGAGGGCGTG | 1.01 ± 0.014 |
| CGATATCGTG | 1 ± 0.019 |
| ATTGAATGGC | 1.04 ± 0.068 |
| TTTTTGGGGT | 0.999 ± 0.034 |
| GGGGTTGGTA | 1.005 ± 0.006 |
| ATATTCGCTC | 1.12 ± 0.1 |
| TGGTGAAATG | 1 ± 0.013 |
| GGGAATGGGT | 1.01 ± 0.014 |

| Sequence | switch fluorescence ratio |
| --- | --- |
| TAAGAGTGCT | 0.9726 ± 0.0043 |
| TTTGGCTTAT | 0.989 ± 0.022 |
| TGCTTGGAGG | 0.996 ± 0.014 |
| ATTTGTAGGT | 0.9967 ± 0.0019 |
| TGTTTTGTTT | 0.995 ± 0.013 |
| TATTCATTAA | 0.969 ± 0.011 |
| GGGGTTTTTG | 0.995 ± 0.029 |
| TGCGCCAGGG | 1.263 ± 0.0037 |
| GAGGCAAGGT | 1.65 ± 0.092 |
| AAAGAATGGT | 0.991 ± 0.054 |
| CGTCTGTGGG | 0.9844 ± 0.0041 |
| TTTATAGTAA | 0.98978 ± 0.00052 |
| AATTATCCTT | 1.07 ± 0.037 |
| GGTAACATTT | 1.061 ± 0.0053 |
| CGTCGGCAAA | 3.42 ± 0.21 |
| TAGGTGACTG | 0.982 ± 0.037 |
| TCGGGATAGC | 1.08 ± 0.052 |
| TGGGGCAATT | 1.1 ± 0.06 |
| TTGGAGGTTC | 0.99 ± 0.063 |
| CACGCGTATG | 1.03 ± 0.011 |
| TGTGGTGTTT | 0.984 ± 0.036 |
| TCGTTAATCA | 0.9835 ± 0.0088 |
| TCAATTTAGG | 0.966 ± 0.014 |

| Sequence | switch fluorescence ratio |
| --- | --- |
| TTTCCACAGG | 1.396 ± 0.0082 |
| TTATAAAGAT | 0.992 ± 0.035 |
| TCTTTTGGCG | 0.927 ± 0.059 |
| AGGGTGATAC | 1.61 ± 0.62 |
| AAAATAATTC | 1 ± 0.059 |
| TTATTTAGGC | 1.12 ± 0.055 |
| GAAACAGACA | 1.08 ± 0.035 |
| ATGAGGGG | 1.01 ± 0.043 |
| TGGGTAAGGG | 1.01 ± 0.03 |
| ACTGTGTTTT | 0.972 ± 0.015 |
| TAATCCATTT | 1.02 ± 0.036 |
| CTGTAGCTGG | 1.53 ± 0.05 |
| TTTTTCACGT | 1.02 ± 0.029 |
| AGCCTTATCC | 1.09 ± 0.02 |
| AGTGGGGCGT | 1 ± 0.016 |
| ACTATGTGTA | 0.989 ± 0.014 |
| GGCAATAGGG | 1.14 ± 0.056 |
| GGTCGGGGGG | 1.03 ± 0.037 |
| ATGGAAGTTT | 1.01 ± 0.022 |
| GGTATGGCGA | 0.939 ± 0.048 |
| CGGGGTGGTG | 1.04 ± 0.067 |
| ATGAGTGTGT | 0.984 ± 0.015 |
| TTTTAGCAAC | 1.2325 ± 0.0007 |

| Sequence | switch fluorescence ratio |
| --- | --- |
| AACTGGCAAT | 1.5 ± 0.072 |
| GCAGGGGGAG | 1.02 ± 0.0081 |
| GGTTTTTTGC | 1.01 ± 0.04 |
| TCGTATTACG | 1.03 ± 0.094 |
| AAGGGTTTGC | 0.974 ± 0.022 |
| CTAGAGGGGA | 1.14 ± 0.2 |
| AGCAGGGGCT | 1.025 ± 0.0069 |
| TGCGGGTTAA | 1.02 ± 0.024 |
| TAGGGTAATT | 0.9965 ± 0.0041 |
| TTATTGGGGG | 0.982 ± 0.037 |
| GGGGTTGGGT | 1.03 ± 0.026 |
| GCAGGGGTTA | 1.28 ± 0.43 |
| ACCAAAGAGA | 0.993 ± 0.013 |
| ATCGTTAAGC | 1.03 ± 0.022 |
| ATTTAGGGGT | 1.02 ± 0.057 |
| GCGGTGAGAT | 0.989 ± 0.012 |
| AACGGGTAGC | 0.993 ± 0.029 |
| TTTAGATCTT | 0.981 ± 0.012 |
| TTTAGACAAT | 1.02 ± 0.022 |
| GAAGATTTCT | 0.976 ± 0.03 |
| TGTAACCTTT | 1.04 ± 0.018 |
| ATTGTTGTTA | 0.98517 ± 0.00068 |
| GGGGTAAGTA | 0.986 ± 0.027 |

| Sequence | switch fluorescence ratio |
| --- | --- |
| TCATGGTCTG | 1 ± 0.012 |
| GTTAGATGGG | 1 ± 0.034 |
| CCAAAGGGAC | 1.089 ± 0.0061 |
| TTTAAATTGT | 0.99 ± 0.035 |
| TTAATCTGTA | 0.99 ± 0.068 |
| ACAGCTGTTT | 0.998 ± 0.027 |
| AATTTTATGT | 1.01 ± 0.011 |
| TATGGTGACG | 1 ± 0.12 |
| GGGTGCCGGT | 1.01 ± 0.024 |
| TTATTAATTT | 1 ± 0.03 |
| CGGCTACTTT | 1.03 ± 0.038 |
| TAACGGGGCA | 0.9842 ± 0.003 |
| TTTTAAAACG | 1.04 ± 0.084 |
| ACTAGGGCGT | 1 ± 0.033 |
| TTTTCGGCGT | 1.01 ± 0.01 |
| TCGGCTTGGC | 1.03 ± 0.086 |
| TTAGTCATGC | 1.09 ± 0.12 |
| ATGCTGGGTT | 0.993 ± 0.048 |
| ATTTGAACGT | 0.966 ± 0.085 |
| AATGTGAAAA | 0.976 ± 0.053 |
| CGGCTGCGTG | 0.998 ± 0.0073 |
| ACTCGAGGGA | 1.01 ± 0.011 |
| GATCCAGGAG | 1.11 ± 0.047 |

| Sequence | switch fluorescence ratio |
| --- | --- |
| TCGAGTTCAG | 0.99 ± 0.021 |
| TTTTTCGTGA | 1.13 ± 0.15 |
| TTACTGTTG | 1.05 ± 0.1 |
| AAGTTGCTTG | 0.989 ± 0.02 |
| TTAGCAGCTG | 1 ± 0.04 |
| CCAGGTGTCT | 2.16 ± 0.26 |
| CGCTCGGGTT | 1.003 ± 0.0025 |
| GACGAGCCTG | 0.996 ± 0.015 |
| CTATAACGTT | 1.01 ± 0.005 |
| CTAGGATGTA | 0.986 ± 0.015 |
| CCGGGCGGTG | 1.04 ± 0.021 |
| TATCACTAGG | 1.02 ± 0.0022 |
| TGGGAAAACT | 1.07 ± 0.12 |
| ATAGGATATA | 1.03 ± 0.018 |
| TTTGCCTGTA | 0.992 ± 0.032 |
| TCGTTAGATG | 0.989 ± 0.023 |
| CTTATGACAG | 0.988 ± 0.011 |
| CATGGTATGT | 1.01 ± 0.038 |
| CCGAGTTAGG | 1.068 ± 0.0066 |
| ATCGGCTGTG | 0.983 ± 0.022 |
| TGCTGGATGG | 0.975 ± 0.032 |
| CCTGGCTTTT | 1.047 ± 0.007 |
| ATTTGTTACG | 1.01 ± 0.046 |

| Sequence | switch fluorescence ratio |
| --- | --- |
| TACTAGAAGA | 1.03 ± 0.039 |
| ATAATACCTT | 1.15 ± 0.094 |
| GGGTTGTGAT | 0.984 ± 0.014 |
| ATGTAGTGGC | 0.995 ± 0.049 |
| GGAGTCGTTT | 0.987 ± 0.027 |
| AGAATTATTG | 0.9936 ± 0.0079 |
| TAGTGTAGGC | 1.03 ± 0.014 |
| AGGTTTTGAT | 1.01 ± 0.019 |
| GGAATCGGAA | 1.02 ± 0.034 |
| ATGTTGAAGC | 0.9619 ± 0.0078 |
| AATATGGGT | 1 ± 0.034 |
| GGAGCGGGGA | 1 ± 0.084 |
| TGCGGTGTAG | 1.01 ± 0.011 |
| AGGCTTAAAT | 0.989 ± 0.025 |
| AGAACTGGCT | 0.988 ± 0.011 |
| TGTGATAGGT | 1 ± 0.028 |
| AGTTGTGGGG | 0.995 ± 0.032 |
| CCGGGGGGTG | 1.07 ± 0.066 |
| CGAAATCGGG | 1.02 ± 0.018 |
